Measured values reported in the RNAGym collection of RNA variant scans (doi:10.1073/pnas.2313332121).
Variants at the floor of the assay were thinned out.

B1: TPR 5TU (parent)
chain: GGAUCUUCUCGAUCUAACAAAAAAGACAAAUCUGCCACAAAGCUUGAGAGCAUCUUCGGAUGCAGAGGCGGCAGCCUUCGGUGGCGCGAUAGCGCCAACGUUCUCAACUAUGACACGCAAAACGCGUGCUCCGUUGAAUGGAGUUUAUCAUG

Variants of: B1
Test: polymerase ribozyme fitness, log enrichment relative to wild type (log ratio); higher = more active; in vitro selection for triplet polymerase activity
Method in brief: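 A heterodimeric triplet polymerase ribozyme had each of its subunits mutagenized by PCR into a library, which was transcribed. One round of in vitro selection, done in triplicate, annealed each library with a biotinylated primer, its partner subunit and triplets, then incubated it frozen at −7 °C before gel excision of extended constructs, streptavidin-bead capture and RT-PCR. Fitness is the logarithm of genotype enrichment relative to wild-type enrichment, based on Illumina sequencing of inputs and outputs and inverse-variance-weighted replicate averages. A base-2 logarithm is used, and genotypes were kept only with ≥10 input reads and ≥1 read per output.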

Row | Variant | polymerase ribozyme fitness (log ratio)
1 | GGAUCUUCUCGAUCUAACAAAAAAGACAAAUCUGCCACAAAGCUUGAGAACAUCUUCGGAUGCAGAGGCGGCACCCUUCGGUGGCGAGAUAGCGCCAACGUUCUCAACUAUGACACGCAAAACGCGUGCUCCGUUGAAUGGAGCUUAUCACG | ≤ -4.2
2 | GGAUCUUCUCGAUCUAACAAAAAAGACAAAUCUGCCACAAAGCUUGAGAACAUCUUCGGAUGCAGAGGCGGCAGCCUUCGGUGGCGCGAUACCGCCAACGUUCUCAACUAUGACACGCAAAACGCGUGCUCCGUUGAAUGGAGUUUAUCAUG | -3.26
3 | GGAUCUUCUCGAUCUAACAAAAAAGACAAAUCUGCCACAAAGCUUGAGAACAUCUUCGGAUGCAGAGGCGGCAGCCUUCGGUCGCGCGAUAGCGCCAACGUUCUCAACUAUGACACGCAAAACGCGUGCUCCGUUGAAUGGAGAUUAUCAUG | -2.07
4 | GGAUCUUCUCGAUCUAACAAAAAAGACAAAUCUGCCACAAAGCUUGAGAACAUCUUCGGAUGCAAAGGCGGCAGCCUUCGGUGGCGCGAUAGCGCCAACGUCCUCAACUAUGACACGCAAAACGCGUGCUCCGUUGAAUGGAGUUUAUCAUG | -4.1
5 | GGAUCUUCUCGAUCUAACAAAAAAGACAAAUCUGCCACAAAGCUUGAGAACAUCUUCGGAUGCAGAGGCGGCAACCUCCGGUGGCGCGAUAGCGCCAACGUUCUCAACUAUGGCACGCAAAACCCGUGCUCCGUUGAAUGGAGUUUAUCAUG | ≤ -4.2
6 | GGAUCUUCUCGAUCUAACAAAAAAGACAAAUCUGCCACAAAGCUUGAGAACAUCUUCGGAUGCAGAGGCGGCAGCCUUCGGUGGCGCGAUAGCGCCAACGUUCUCAACUAUGACACGCAAAACGCGUGCUCCGUUGAAUGAAGUUUAUCAUG | -0.962
7 | GGAUCUUCUCGAUCUAACAAAAAAGACAAAUCUGCCACAAAGCUUGAGAACAUCUUCGGAUGCAGAGGCGGCAGCCUUCGGUGGCGCGAUAGCGCCAACGUUCUCAACUAUGACACGAUAAACGCGUGCUCCGUUGAAUGGAAUUUAUCAUG | -2.71
8 | GGAUCUUCUCGAUCUAACAAAAAAGACAAAUCUGCCACAAAGCUUGAGAACAUCUUCGGAUGCAGAGGCGGCAGUUAUCGGUGGCGCGAUAGCGCAAACGUUCUCAACUGUGACACGCAAAACGCGUGCUCCGUUGAAUGGAGUUUAUCAUG | ≤ -4.2
9 | GGAUCUUCUCGAUCUAACAAAAAAGACAAAUCUGCCACAAAGCUUGAGAACAUCUUCUGAUGCAGAGGCGGCAGCCUUCGGUGGCGCGAUAGCGUCAACGUUCUCAACUAUGACACGGAAAACGCGUGCUCCGUUGAAUGGAGUUUAUCAUG | -1.92
10 | GGAUCUUCUCGAUCUAACAAAAAAGACAAAUCUGCCACAAAGCUUGAGAACAUCUUCGGAUGCAGAGGCGGCAGCCUUCGGUGGCGCAAUAGCGCCAACGUUCUCAACUAUGACACGCAAAACGCGUGCUCCGUUGAAUGGAGUUUAUCAUG | ≤ -4.2
11 | GGAUCUUCUCGAUCUAACAAAAAAGACAAAUCUGCCACAAAGCUUGAGAACAUCUUCGGAUGCAGAGGCGGCAGCCUUCGGUGGCGUGAUAGCGCCAAUGUUCUCAACUAUGACACGCAAAACGCGUGCUCCGUUGAAUGGAGUUAAUCAUG | -3.96
12 | GGAUCUUCUCGAUCUAACAAAAAAGACAAAUCUGCCACAAAGCUUGAGAACAUCUUCGGAUGCAGAGACGGCAGCCUUCGGUGGCGCGAUAGCGACAACGUUCUCAACUAUGACACGCAAAACGCGUGCUCCGUUGAAUCGAGUUUAUCAUG | ≤ -4.2
13 | GGAUCUUCUCGAUCUAACAAAAAAGACAAAUCUGCCACAAAGCUUGAGAACAUCUUCAGAUGCAGAGGCGGCAGCCUACGGUGGCGCGAUAGCACCAACGUUCUCAACUAUGACACGCAAAACGCGUGCUCCGUUGAAUGUAGUUUAUCAUG | ≤ -4.2
14 | GGAUCUUCUCGAUCUAACAAAAAAGACAAAUCUGCCACAAAGCUUGAGAACAUCUUCGGAUGCAGAGGCGGCAGCAUUCGGUGGCGAGAUAGCGCCGACGUUCUCAACUAUGACACGUAAAACGCGUGCUCCGUUGAAUGCAGUUUAUCAUG | ≤ -4.2
15 | GGAUCUUCUCGAUCUAACAAAAAAGACAAAUCUGCCACAAAGCUUGAGAACAUCUUCGGAUGCAGAGGCGACAGCCUUCGGUGGCGCGAUAGCGUCAACGUUCUCAACUAUGACACGCAAAACGCGUGCUCCGUUGAAAGGAGUUUAUCAUG | ≤ -4.2
16 | GGAUCUUCUCGAUCUAACAAAAAAGACAAAUCUGCCACAAAGCUUGAGAACAUCUUCGGAUGCAGAGGCGGCAGCCUUCGGUAGCGAGAUCACGCCAACGUUCUCAACUAUGACACGCAAAACGCGUGCUCCGUUGAAUGGAGUUAAUCAUG | ≤ -4.2
17 | GGAUCUUCUCGAUCUAACAAAAAAGACAAAUCUGCCACAAAGCUUGAGAACAUCUUCGGAUGCAGAGGCGGCAGCCUUCGGUGGCGCGAUAGCGCCAAGGUUCUCAACUAUGACACGCAAAACGCGUGCUCCGUUGAAUGGAGUUUAUCAUG | -3.05
18 | GGAUCUUCUCGAUCUAACAAAAAAGACAAAUCUGCCACAAAGCUUGAGAACAUCUUCGGAUGCAGAGGCGGCAGCCUUCGGUGGCGCGAUAGCGCCAACGUUGUCAACUAGGACACGCAAAUCGCGUGCUCCGUUGAAUGGAGUUUAUCAAG | ≤ -4.2
19 | GGAUCUUCUCGAUCUAACAAAAAAGACAAAUCUGCCACAAAGCUUGAGAACAUCUUACGAUGCAGAGGCGGCAGCCCUCGGUGGCGCCAUAGCGCCAACGUUCUCAACUAUGACACGCAAAACGCGUGCUCCGUUGAAAGGAGUUUAUCAUG | ≤ -4.2
